Data reported in PMC8795569.

Target: HA-APP (full-length, APP695 spliced isoform) (UniProt P05067)
Experiment: ELISA

Kd: 41.3 nM
Substance: MDGA1 MAM-Fc (recombinant MDGA1 MAM domain fused to Fc) (from UniProt Q8NFP4 751-918) (Fc fusion)
